Consider 41 sequences from the nanobody polyreactivity screen of Harvey et al. (2022).

This data set can be described thus: yeast display, Sf9 membrane polyspecificity reagent, FACS + sequencing; frameworks hold sequencing errors. Summed up:
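Sorting gates, low and high (top ~1%), were placed on anti-HA fluorescence to track expression and on streptavidin fluorescence to track reagent binding. A clone's polyreactivity label is taken from the gate it came out of. The reagent was 10% biotinylated, detergent-solubilized Sf9 membrane, applied for 1 hour at 4 °C to galactose-induced yeast display cells.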
As for “QVQHVESGGGLVQAGGSLRLSCAASGFTFVYYAMGWYRQAPGKERELVAAISRSGSRTYYADSVKGRFTISRDNAKKTVYLQMNSLKPEDTAVYYCAVAGYSPYLYRYGYWVQGTQVTVSS”, the “polyreactivity (PSR sort gate)” value is given as “high polyreactivity”.

For the sequence “QVQHVESGGGLVQAGGSLRLSCAASGFTFYIYVMGWYRQAPGKERELVAAITWSGGRTYYADSVKGRFTISRDNAKNTVYLQMNSLKPEDTAVYYCAASYPGLSYHKYEYWGQGTQVTVSS”, the “polyreactivity (PSR sort gate)” value was “high polyreactivity”.

With “QVQHVESGGGLVQAGGSLRLSCAASGGIFYPNAMGWYRQAPGKERELVAAISSGGGSTYYADSVKGRFTISRDNAKNTVYLQMNSLKPEDTSGYYCAASADRLKSDVESDYWGQGTLVTVSS”, the “polyreactivity (PSR sort gate)” value is listed as “low polyreactivity”.

With “QVQHVESGGGLVQAGGSLRLSCAASGIIFPRNAMGRYRQAPGKEREFVAAITLSGGRTYYADSVKGRFTISRDNAKNSVYLQMNSLKPEDTAVYYCAAYGFGPYKGVDYWGQGTQVTVSS”, the “polyreactivity (PSR sort gate)” value was “high polyreactivity”.

“QVQHVESGGGLVQAGGSLRLSCAASGIIFSEYAMGWYRLAPGKERELVAVISRSGGRTYYADSVKGRFTISRDNAKNTVYFQMNSLKPEDTAVYYCAVVHKTFTGDYWGQGTQVTVSS”: the “polyreactivity (PSR sort gate)” value is recorded as “high polyreactivity”.

As to “QVQHVESGGGLVQAGGSLRLSCAASGIIFYHNAMGWYRQAPVKERELVASITEIGGSTYYADSVKGLFTISRDNAKSTVYLQMNRLKPEDTAVYYCAAGTLTSFSRYDYWGQGTQVTVSS”, the “polyreactivity (PSR sort gate)” value is given as “low polyreactivity”.

In the case of “QVQHVESGGGLVQAGGSLRLSCAASGIIFYWYAMGWYRQAPGKERELVAAISRTGGSTYYADSVKGRFTISRDNAKNTVYLQMNSLKPEDTAVYYCAADDGGYWSAGHEYWGQGTQVTVSS”, the “polyreactivity (PSR sort gate)” value was “high polyreactivity”.

As for “QVQHVESGGGLVQAGGSLRLSCAASGIISYKNVMGWYRQAPGKERELVAAISGRGGSTYYADSVKGRFTISRDNAKNTVYLQMNSLKPEDTAVYYCAKYPGISGYNYWGQGTQVTVSS”, the “polyreactivity (PSR sort gate)” value is “high polyreactivity”.

Consider “QVQHVESGGGLVQAGGSLRLSCAASGLIFRYYVKGWYRPAPGKERDLDAGITSSGGYTFYAESVKGRFTISRDNAKNTVYLQMNSLKPDDTAVYYCAARRPYAYARSSRYDYWGQGTQVSVSS”, for which the “polyreactivity (PSR sort gate)” value is on record as “high polyreactivity”.

With “QVQHVESGGGLVQAGGSLRLSCAASGLTFSQNAMGWYRQPQGQERELVAAISSSGTSTYYADSVKGRFSISRDNAKNTVYLQMNSVKPEDTAVYYCNAPPGTFQWQGHSDYWGQGTQVTVSS”, the “polyreactivity (PSR sort gate)” value is listed as “low polyreactivity”.

Consider “QVQHVESGGGLVQAGGSLRLSCAASGLTFTAYVMGWYRQAPGKERELVAAIRISGGSTYYADSVKGRFTISRDNAKNTVYLQMKSLQPADTAVYYCATRHRHVTATDSRIGDYWGQGTQVTVSS”, for which the “polyreactivity (PSR sort gate)” value is on record as “low polyreactivity”.

On to “QVQHVESGGGLVQAGGSLRLSCAASGLTFYRYAMGWNRQAPGKERELVAAITSGGSTYYADSVKGRFTISRDNAKNTVYLQMNSLKPEDTAVYYCARQYGYQPERYGYWGQGTQVTVSS”, for which the “polyreactivity (PSR sort gate)” value is on record as “low polyreactivity”.

“QVQHVESGGGLVQAGGSLRLSCAASGNIFAVYAKGWYRQAPGKERELVAAITTGTNTYADSVKGRFTISRDNAKNTVYLQMNSLKPEDTAVYYCAARYYRPLDYWGQGTQLTVSS”: the “polyreactivity (PSR sort gate)” value was “low polyreactivity”.

As to “QVQHVESGGGLVQAGGSLRLSCAASGRIFGYYAMGWYRQAPGKERELVAAISRGGSTNYADSVNGRFTISLDNAKNSVYFQMNSLNPEDTAVYYCAADVASARYYHGYNYWGQGTQVTLSS”, the “polyreactivity (PSR sort gate)” value is listed as “high polyreactivity”.

“QVQHVESGGGLVQAGGSLRLSCAASGRIFIVNAMGWYRQAPGKERELVAAISYRGGSTYYADSVKGRFTISRDNAKNTVYLQMNSLKPEDTAVYYCAADRYSYLGYPYEYEYWGQGTQVTVSS”: the “polyreactivity (PSR sort gate)” value is given as “low polyreactivity”.

For the sequence “QVQHVESGGGLVQAGGSLRLSCAASGRIFPRYAMGWYGQTPGKERELVADISRSGGSTYYADSVKGRFTISRDNAKNSVYLQMNSLKPEDTAVYYCAASQYRRVKQGNYWGQGTQVTVSS”, the “polyreactivity (PSR sort gate)” value is listed as “high polyreactivity”.

As to “QVQHVESGGGLVQAGGSLRLSCAASGRIFQHYPMGSYRQAPGKETEFVAAISSSSGSTYADSVKGRFTISRDNAKNTVYLQMNSLNPEDTAVYYCNRDYMPFKFYGGSHDMEYWGQGTQVTVSS”, the “polyreactivity (PSR sort gate)” value is reported as “low polyreactivity”.

Take “QVQHVESGGGLVQAGGSLRLSCAASGRIFSRYAMGWYRQAPGKERELVAAITSGGSTYYADSVKGRFTISRDNAKNTVYLQMNSLKPEDTAVSYCATRYRFGSYHSIYDYWGQGTQVTVSS”: the “polyreactivity (PSR sort gate)” value was “high polyreactivity”.

As for “QVQHVESGGGLVQAGGSLRLSCAASGRIFVPYVMGWYRQAPGKERELVASISDSDTSTYDADSVKGRFTISRDNAKTTVYLQMNSLKPEDTAVYYCNVDYWGKGTQVTVSS”, the “polyreactivity (PSR sort gate)” value is recorded as “low polyreactivity”.

On to “QVQHVESGGGLVQAGGSLRLSCAASGRIFVRNAMGWYRQARGKERELVADITNGGSTNYADSVKGRFTISRDNAKNTVYLQMNSLKPEDTAVYYCAVERYRYPFDYWGQGTQVTVSS”, for which the “polyreactivity (PSR sort gate)” value was “low polyreactivity”.

On to “QVQHVESGGGLVQAGGSLRLSCAASGRIFWYYAMGWYRQAPGKERELVAASTRGGITTYADSVKGRYTISRDNAKNTVYLQMNSLKPEDTAVYYCNAVRWYGRMDYWGQGTQVTVSS”, for which the “polyreactivity (PSR sort gate)” value was “low polyreactivity”.

Take “QVQHVESGGGLVQAGGSLRLSCAASGRIIWWYAMRRYRQPPGKERELVAVIDDSVGITYFADSVKGRFTISRDNAKNTVYLQMNSLKPVDTAVNYCARNVNAQKVLGGFDSWGKGTQVTVSS”: the “polyreactivity (PSR sort gate)” value is “low polyreactivity”.

In the case of “QVQHVESGGGLVQAGGSLRLSCAASGRIMARNAMGWYRQAPGKERELVADISYSGGRTYYADSVKGRFTISRDNSKNTVYFQMNRLKQEDTAVYYCADSRSSRTYHDDYWGQGTQVTVSS”, the “polyreactivity (PSR sort gate)” value is reported as “high polyreactivity”.

For the sequence “QVQHVESGGGLVQAGGSLRLSCAASGRIYFAYAMGWSRQAPGKERELVASITSGGSTNYADSVKGRFTISRDNGKNTLYLQMNSLKPEDTAVYYCAARSRFSNLYGRFYYWGQGTQVTVSS”, the “polyreactivity (PSR sort gate)” value was “high polyreactivity”.

Take “QVQHVESGGGLVQAGGSLRLSCAASGRTFAGYAMGWYRQAPGKEWELVSGITRGVITNYADSVKGRFTISRDNAKNTVYLQMNSLKPEDTAVYSCNARTFPVRLYTPRYGYWGQGTQVTVSS”: the “polyreactivity (PSR sort gate)” value is given as “high polyreactivity”.

For the sequence “QVQHVESGGGLVQAGGSLRLSCAASGRTFDSYAMGWYRQAPGKERELVAAIYADSVKGRFTISRDNAKNTVYLQMNSLKPEDTAVYYCAAETYSGQTYLGEYDYWGQGTQVTVSS”, the “polyreactivity (PSR sort gate)” value is listed as “low polyreactivity”.

Take “QVQHVESGGGLVQAGGSLRLSCAASGRTFDYYAMGWYRQAPGKERELVASIRSSGRTTYADSVKGRFTISRDNAKNTDYLQMNSRKPEDTAVYYCAAQWPGWWGYDYWGQGTQVTVSS”: the “polyreactivity (PSR sort gate)” value is recorded as “low polyreactivity”.

Regarding “QVQHVESGGGLVQAGGSLRLSCAASGRTFGGNAMGWYRQAPGKERELVAAISKSGGRTYYADSVKGRFTISRDNAKNTVYLQMNSLKPEDTAVYYCNKVLSVSQAGGFDYWGQGTQVTVSS”, the “polyreactivity (PSR sort gate)” value was “high polyreactivity”.

As to “QVQHVESGGGLVQAGGSLRLSCAASGRTFGINALGWYSQAPGNESELVADISGDGGNTYYADSVKGRFTISRDNAKNTVFLQMNSLKPEDTAVYFCATRYEKFRYDYWGQGTQVTVSS”, the “polyreactivity (PSR sort gate)” value was “low polyreactivity”.

As to “QVQHVESGGGLVQAGGSLRLSCAASGRTFNGYAMGWYRQAPGKERELVAAIRSTTGSTYYADSVKGRFTISRDNAKNTVYLQMNSLKPEETAVYYCAAAYPFYADMDYCGQGTQVTVSS”, the “polyreactivity (PSR sort gate)” value is “low polyreactivity”.

With “QVQHVESGGGLVQAGGSLRLSCAASGRTFPGNAMGWYRQAPGKERELVAAISSSGGSTHYADSVKGRFTFSRDNAKNTVYLQMNSRKPEDSAVYYCNARSKGYSYRYYYWGQGTQVTVSS”, the “polyreactivity (PSR sort gate)” value is “high polyreactivity”.

For the sequence “QVQHVESGGGLVQAGGSLRLSCAASGRTFTYNAMGWYRQAPGKERELVAAISWNGGRTYYADSVKGRFTISRDNAKNTVYLEMNSLKPEETAVYYCNAVSYNLAAYDYWGQGTQVTVSS”, the “polyreactivity (PSR sort gate)” value is “high polyreactivity”.

On to “QVQHVESGGGLVQAGGSLRLSCAASGSIFASNAMGWYRQPPGKEREFVAAISSSGTRTYSADSVKGRFTISRDNAKNTVYLQLNSLKQEDTAVYYCATRRGYDSVYYFYTLWSYYWGQGTQVTVSS”, for which the “polyreactivity (PSR sort gate)” value was “low polyreactivity”.

Take “QVQHVESGGGLVQAGGSLRLSCAASGSIFGANAMGWYRQAPGNERQLVAAITSGGSTTYADSVKGRFTISRDNAKNTVYLQMNSLKPDDTAVYYCAADESTPYWPVDNFDYWGQGTQVTVSS”: the “polyreactivity (PSR sort gate)” value was “low polyreactivity”.

On to “QVQHVESGGGLVQAGGSLRLSCAASGSIFGVYDMGWYRQAPGKERELVAAISWRGGSTYYADSVKGRFTISRDNAKNTVYLQMNSVKPEDTAVYYCNALGVAEYDWGQGTQVTVSS”, for which the “polyreactivity (PSR sort gate)” value was “low polyreactivity”.

Consider “QVQHVESGGGLVQAGGSLRLSCAASGSIFHVNAMGWYRQAPGKERELVAAISSSGGRTYYADSVKGRFTISRDNAKNTVYLQMNSLKPEDTAVYYCAAASQVRQPPNGGNGYWGQGTQVTVSS”, for which the “polyreactivity (PSR sort gate)” value is given as “high polyreactivity”.

“QVQHVESGGGLVQAGGSLRLSCAASGSIFNLYVMGWYRQAPGKERELVATISSGGSTNYADSVKGRFTISRDNAKNTVYLQMNSLKPEDTAVYYCAKPYIVYYSMDYWGQGTQVTVSS”: the “polyreactivity (PSR sort gate)” value is “low polyreactivity”.

For the sequence “QVQHVESGGGLVQAGGSLRLSCAASGSIFRYNARGWYRQAPGKERELVAAISSSGGRTYYADSVKGRFTISRDNAKNTVYLQMNSLKPEDTAVYYCATADTRRFTYGYYYWGQGTQVTVSS”, the “polyreactivity (PSR sort gate)” value is listed as “high polyreactivity”.

For the sequence “QVQHVESGGGLVQAGGSLRLSCAASGSIFSVYAMGWYRPEPGKASQLFAGITRGGSTYADSVKGRFTISRDNAKNTVYLQMNSLKPEDTAVYYCAADALIATPSWGKYNYWVQGTQVTVSS”, the “polyreactivity (PSR sort gate)” value is “high polyreactivity”.

For “QVQHVESGGGLVQAGGSLRLSCAASGSIFVRNAMGWYRQAPGKEREFVAAISRSGDSTNYADSVKGRFTISRDNAKNTVYLQMNSLKPEETAVYYCAVGYRYLKWVDYWGQGTQVTVSS”, the “polyreactivity (PSR sort gate)” value was “high polyreactivity”.

As for “QVQHVESGGGLVQAGGSLRLSCAASGSIFWVYVMGRYIQAPGQERELVAAITNGGSTDYADSVKGRFTISRDNAKNTVYLQMNSLKPEDTAFYYCAKRSTIWGRILITFDYWGQGTQVTVSS”, the “polyreactivity (PSR sort gate)” value was “low polyreactivity”.
